Data taken from paper PMC6338834.

T1: Mcm10 (Saccharomyces cerevisiae, UniProt P32354 1-571)
T1 sequence: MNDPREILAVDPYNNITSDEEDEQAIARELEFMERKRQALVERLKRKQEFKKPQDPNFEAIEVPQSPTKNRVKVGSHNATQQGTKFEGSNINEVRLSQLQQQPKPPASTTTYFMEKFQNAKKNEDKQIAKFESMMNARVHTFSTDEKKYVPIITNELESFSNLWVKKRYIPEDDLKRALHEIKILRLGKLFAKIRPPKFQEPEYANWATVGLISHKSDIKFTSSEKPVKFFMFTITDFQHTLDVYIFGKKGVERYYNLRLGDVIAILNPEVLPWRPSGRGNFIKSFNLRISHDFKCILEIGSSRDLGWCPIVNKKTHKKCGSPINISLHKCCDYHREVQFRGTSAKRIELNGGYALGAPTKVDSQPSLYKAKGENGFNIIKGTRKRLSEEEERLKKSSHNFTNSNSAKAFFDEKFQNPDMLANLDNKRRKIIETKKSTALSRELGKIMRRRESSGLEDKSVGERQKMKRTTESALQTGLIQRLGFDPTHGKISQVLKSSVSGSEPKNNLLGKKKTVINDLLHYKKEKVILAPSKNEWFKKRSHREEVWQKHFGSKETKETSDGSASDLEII

B1: 5' flap lagging strand oligo (ssDNA)
DNA: TTTTTTTTTTTTTTTTTTTTTTTTTTTTTTTTTTTTTTTTTTTTTTTTTGACGCTGCCGAATTCTGGCTTGCTAGGACATTACAGGATCGTTCGGTCTC
modifications: last 5 linkages at 3' end thiodiester (phosphorothioate)
B2: 3' FITC 60mer ssDNA (ssDNA)
DNA: TTTTTTTTTTTTTTTTTTTTTTTTTTTTTTGGTGAGGGTTGGGAAGTGGAAGGATGGGCT

Tests used:
RPA = RPA (Saccharomyces cerevisiae, UniProt P22336;P26754;P26755 1-621;1-273;1-122); experiment: EMSA
Mcm10 = target: T1, Mcm10; experiment: fluorescence anisotropy

Sequence of RPA (P22336 whole entry, chain 1 of 3): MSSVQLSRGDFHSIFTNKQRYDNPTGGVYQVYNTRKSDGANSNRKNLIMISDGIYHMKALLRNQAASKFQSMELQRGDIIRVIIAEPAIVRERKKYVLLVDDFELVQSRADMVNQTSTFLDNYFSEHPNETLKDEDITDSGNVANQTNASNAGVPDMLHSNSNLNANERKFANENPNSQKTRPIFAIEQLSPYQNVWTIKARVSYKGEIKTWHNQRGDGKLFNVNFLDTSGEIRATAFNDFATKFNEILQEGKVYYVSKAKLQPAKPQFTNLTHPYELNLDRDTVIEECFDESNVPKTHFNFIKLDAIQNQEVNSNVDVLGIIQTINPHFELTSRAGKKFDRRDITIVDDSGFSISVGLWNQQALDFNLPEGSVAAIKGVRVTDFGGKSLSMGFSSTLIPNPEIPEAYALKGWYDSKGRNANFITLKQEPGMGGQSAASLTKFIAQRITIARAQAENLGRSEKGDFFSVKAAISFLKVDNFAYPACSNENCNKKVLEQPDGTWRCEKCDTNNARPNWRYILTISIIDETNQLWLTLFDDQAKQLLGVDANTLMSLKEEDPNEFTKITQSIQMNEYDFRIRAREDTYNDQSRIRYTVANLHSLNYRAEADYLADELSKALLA
Sequence of RPA (P26754 whole entry, chain 2 of 3): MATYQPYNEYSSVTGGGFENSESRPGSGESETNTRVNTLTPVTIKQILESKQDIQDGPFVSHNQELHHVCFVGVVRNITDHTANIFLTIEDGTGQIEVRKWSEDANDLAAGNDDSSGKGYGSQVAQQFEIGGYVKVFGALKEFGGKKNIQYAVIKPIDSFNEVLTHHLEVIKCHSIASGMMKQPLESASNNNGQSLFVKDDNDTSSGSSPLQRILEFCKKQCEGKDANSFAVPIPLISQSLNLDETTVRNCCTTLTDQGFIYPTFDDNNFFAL
Sequence of RPA (P26755 whole entry, chain 3 of 3): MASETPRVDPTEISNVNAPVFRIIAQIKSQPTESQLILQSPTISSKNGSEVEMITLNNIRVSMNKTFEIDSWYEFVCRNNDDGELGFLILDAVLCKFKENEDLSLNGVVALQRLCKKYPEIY

Binder | binding result (RPA) | Kd (Mcm10) [nM]
B1 | binds | –
B2 | – | 50
